Source: the NTF2 design screens of Basanta et al. (2020)

Assay: protease stability score; higher = more stable; yeast display proteolysis, trypsin and chymotrypsin;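 further: relative to predicted unfolded state with 0 unfolded-like and 1 meaning tenfold more protease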

| Sequence | protease stability score |
| --- | --- |
| SETHMESKIASEIFSDIMHTGDFRTLLRYADPHVRYIVGDKTMHGREIMVEEFKELWKTWGVDRVEVRIEDIKVIGEKVEIHGTLIIGEKTLRVVVISTKVNGQWIQDTFNVDEK | 0.838 |
| SETKKLWKDLADEVLRAWETGNEEEMEKMLDPHTRLHIHINGRDFHAHGRENIIRMMKFTLDFLGIDHFILRRVTYINGVVHIHQQVIINGQESNVRLEVEIIDGVWHEISVDIH | 1.44 |
| SETREDTRELVESFLNALRTGDEDLLRRLMDPHVKVYFNGREFHGRELATRVESHLRVHDIDVRDMRIIGDKVIIDLQVDGEWDGVRFHRETELHTQKVNGRWFIREIRIH | 2.23 |
| SETREIEEEWLRMMFENFITGDWKEIYKYADPNMRFTLSIGEKQERRHGRESMFHAFRRLEEDLGAKHVRLEDSTVYNGRVEINITLEDGDKHINRYIHIQVVNGRMHTIEVSFR | 0.628 |
| SEVAEVAREIVEIITKREYTGDEKTLDRMMDPNVRVEIGDWEIIGRDIYQKFVIELRVKDMHVRFKDVRVQGDFAFQDTELRMHGIIDGKDRETSHDTHWVFYKVDGRWLVHSIHIK | 1.3 |
| SEVDEQAEHMSRLYLKLIKTGDEEHLMHLADPHTRLDINGKTFIGMEVVHEFNEKERRRVPNMRIHEKSVKVEVFDGRAFTEIHGEWHFDGVTQEIRIEVRIDKVNGRWTIRSVHVEIR | 0.704 |
| SEVEDFLHEFVRKLVRVLDTGDWEVLEKMFDPNTRFHIGDKELHGREEFVKFTEELGIRVRWELKDIRFQGDKAETIGTERVDFNGKEITTDVTFEVLLFNGVIKEIRIRRR | 1.36 |
| SEVEEDIRKWLKEHTDSIRTGDEERMLRNMDPHVRVDIDGVEHHGWEHLEEFIHRLTKKIKNMRVDWHRVRFQGDKAEIDGELDIDGRVTHVHIHSIKVDGRWYIKEIYIT | 1.24 |
| SEVEEDTKRVLELLRESWKTGDEHSIKEMLDPNVKILVGDKEFHGMEDWHRIYKRFDYISIRHVRLKDSRHINGVVYLIIHIESEYRIGDKTTEKRYDASIINEKVDGRWIIRSIEIH | 1.91 |
| SEVEEEMEEILKKLLTAFRTGDEKTLEDLLDPHVRLEIGDKTHVGWRDIAEFLRRHIERVDHMRINIDHMEIQGEKIHIDGTLHFWIGDKRHHEKVHLIFVIVNGRLKKIHIHKI | 2.64 |
| SEVEEEMKRRVELLIRLLLTGDEDTFDSNADPDTRVVIRQGDFRVENHGRELMLHHLRELGIKVTELHLREIRIQGDWAHVNIQEHIEVDGRLESRTIHLHFFLVDGKVKSWEIEVR | 1.27 |
| SEVEEEMTRIADILLRVTKTGDWEEMRDLIDPDARMIIDIDGREHINVGREDLARSLKRLRDHLGVKVWDYHHISVIGDKIHIETQQRFNGQDVTTRNEWTVINGKLKEMRLIIH | 2.02 |
| SEVEEFVKRVIHLFHKAFLTGDEHTLIELIDPNARYDVDGRDVHGREIIVEFISTMWRDRGIRIKHVHIEERRYINGRIEIHSKIDVTIGDKREHLETSMIWVKINGQWFIEILIVR | 0.233 |
| SEVEELSRRVAEFTWEVLRTGDERLLREMIDPNVRMEIDGQEYHGMELLVEHWIKLHQKFPNLKLHLREVRVIDGVAHVRLEVRFNGVRLEIEVVITKINGRWSNTFVHETDR | 1.13 |
| SEVEERFKEEMHRQFENSETGNEDEVAKYFDPDARMHIDGKEIHGRDEVKRILSEWRLTHITLRDFRIVGNKIHTDAEVVIEIGDKKIRYRVHIIQYKVNGQWRVESFEVK | 0.88 |
| SEVEESAKIIAELWAHSVETGDEHTLRELMDPNTRFEYGDKERHGRENVTKYFLHFQKWLGFKHIRLEIEDSKAIGDKIKIDLTIKLHQGEKHDFVIVQLFVTKVNGRWVIHSMIVH | 1.58 |
| SEVEESIEHAREIVTEVIKTGDEHHLNRLADPNTRVVFDGKDLHGRERLEEVLREMGVNHIEIKDMKYDSQGNKVHIDIDGRVNVGEKSHNTHLHWIVEKVNGRWLLSSIIIIIR | 0.886 |
| SEVEEWLRTLIHLIILAFRTGDEDQMRRNFDPNARVHVGDKDYHGRELFEEMMHHWRLHHIHIHDVRVQGDYVEADIKLDGEVNGKRFTTRVIIVFLKIDGKWQEKESEFV | 0.395 |
| SEVEHALHEILEILVKIMKTGNFEDLIRNFDPHVQLEFNGKRYHGREAEHFLRERFDHNRHHHVHEVRVQGDKVELHGKLIGEFNGREEEVHIDIIAHKINGRWIFKSVHFR | 2.15 |
| SEVEKHLHNVIELYIRALRTGDEERLRKLLDPHVRVRIGDKHLHGREDWWQHVTRYDHESVHDLKIDHVRVVGNKIEMIITHDIIIIVNGVNLRHSIETEVHARKVDGVWYLTELHHG | 0.075 |
| SEVEKMARHFVELLSKALLTGNWKTIKELVDPNDLLVVGDKIFHGWDVREEERKRFDHHVMDVKVDHHRDIDGRIEMETTLHLDVNINGVRFHFNHETEMIVRKVNGRWILKSETIR | 0.087 |
| SEVERLLREILKLVQHAYETGDEETITELVDPHARMDINGKELHGRDMLHLLLRRIDHEHMRVEMKSVEIQGEWAISRGEEQVHVHVNGKKFDLVINSRVVLHKVDGQWVVRSLFYK | 0.787 |
| SEVHEQIEEIFREFMHMLLTGDWKRLTELADPHVRLEFDGREFHGREELVRRLLELGFKHQHLHDMRIHNFDGRVYMHTDTRVHVDGKHVIVRLELIVNKFNGQWYVHSLRIEVQ | 0.343 |
| SEVHRDLRKAVDYFEEVFRTGDEDKMNNLLDPNVRWIVNGKDLVGREKAIRRYHEHRKTLGVNHFETRIDDQEVYGNKATLHGELTIHVNGRDIHHETRLNVSKINGVWYIESFIID | 0.949 |
| SEVNKHVEEISKLMVKFLLTGNEDLHKSLADPNYYSDVNGRHVIGRHHVEELWHLFLNEIRIDNIHIEDMKIQGEKAHIQGRIIGTVNGKHDELHATMIVVVIDGRIHSLKVEWR | 1 |

| Sequence | protease stability score |
| --- | --- |
| SEVQELAERMFRFLLKVFETGNEDRLTELMDPNTLQIIGDKRNHGRDLYLRTVFEKVEHARMRIEFKEVHVINGQINVDGILWLEFDGRRIFFRVHLELTVVNGVLKEEHVTIH | 1.56 |
| SEVQESIKEVIEIWNKALETGDWHRLTELADPDTRVEIGDKDIIGREAVTSELEKVTHKFKNLRIDEIHIERLEIQGEKVELHGIIRGTVNGQHRFYHTEFIIVKINGRWRLRVIYFL | 1.79 |
| SEVQETIDHLVREVLHDFRTGDERRLEENMDPNAKSIFDGRESHGREKVSKMIHDFLEEMGFKHMELKEREVVGNKVEIHGRVIIGDKEFELHLHSQKIDGRWVLDSIRIE | 0.52 |
| SEVREDIERILTQWSKIMETGDEHTAKRLADPHVKIEVDGRTSVGMETWMEFLRDLGFKVIHVRVHIEHVRDIDGKARVDIRLVIESNVGDKTERYEHETHMIIEKIDGRWVLTRILLK | 1.01 |
| SEWDELLRHILEVMINSVLTGDEHRQLWMADPHAKVHFENHEVHGRDHWSHLVREHINEIRMRIHLHDEKTVGNFAVSDVRYREEVNGVELSTEIELILIVVDGRLKQIEFRYH | -0.029 |
| SEWDRLMKRIAEDITTALQTGDEDRMHELFDPHARMILLIGDFELHYHGMHEISRVLEEHLRRYDHLEWHIRHVDTQGNKVRVESEMRLIIGDKSETRDYRIILIVINGRNKSVEFRVH | 1.49 |
| SEWEEELERLLREIIHSILTGDEKRLRELMDPNAKFHILVNGVEIDLMGMEHHSHWFREWLKHARINTVHIRHYDVVGEKARSDTELDMEIDGRRIRTRTELILVVIDGRVHSLEIRIK | 2.02 |
| SEWEEFMERMLELVIEVMKTGDFDRFRSLFDPHVKIRIIIGDKHHEFHGWLWLRTLIEKMGIDHLQINVRSYRIIGDKLEVDGELLSHYNGRTSHRTVHYHIVIINGRLHHITIEYH | 0.214 |
| SEWEEISRKISRDWTEWLETGDFETFMNYVDPNARYRQGDKDLHGMETLHRYIYHMRMHIRIRRIDHQGDYILIDGELELRQGDKTHRFESIIYIIVIDGKLRRFEIRER | 0.733 |
| SEWEHNLQRFIEELIEDARTGNEENIRENMDPDVRAEVDGQELHGREAQRFVRERIDVIKHNHLREIRFQGDFIHVRGELRGEVNGKEVHTDTHFVIWKFNGRWIIRHVLIR | 1.03 |
| SEWEKDLELALRFVMHAFTTGNWEDLLKFFDPDVRIEVGDKEIHGRHVFFEFLEKLGVKHLRLEIELNHFEIQGDKIHEHGIYRFTYHYNGRVEKKEHDTRVHVTKINGRWYLTHQRVD | 0.668 |
| SEWEKQLRHMVHLVLLAVRTGNEHLLNELLDPDTRAVFNGVESVGREDMWRMLKHLRIERVRVHDERHDDQGNKARFILLGETQVNVNGKVLETHTEIEIILIKVDGQWTFETLTFRIT | 1.55 |
| SEYEDLIKTALHLWHEIFLTGNEDVLHRLIDPHVRVTFNGVRNHGRDYLLHHIEELGMEHHNFDISHVDMQGDKIILYTFLHAHVNGRTTSFQLHIFWIKVNGRWIVKRVEIR | 0.759 |
| SEYEEEMRETLELTALYMRTGNEEDMKELMDPDAKIDVGDKHFHGREQVLHVIKHWRSKHIILREVDFQGEYIHSNGQVTTLINGRELDVESRWIILKVDGRWLVHSVLYL | 0.758 |
| SEYEEESRIAYELFLETVRTGDEDTSREQADPNVRVDVNGVHLHGRELWAEFVSKYKGMQLDLHHVEIQGNKVTNDGTLTVNGVRRKVHLRINKVNGKWILESVHIH | 1.32 |
| SEYEEEVRRAMELEIRSIKTGNEELIKHLMDPNVRLVIGDKNFHGREAIEVFVERFDYIHEVEITSIDLQGDFVNMRGVLDGRINGQRLRTKVHYISRKVDGRWFSESIHIR | 0.66 |
| SEYEEFLKEALRILIDDILTGDWRLVYKLFDPETRLNVNGQEIHGRDDVVHHLTHIAREWRMDVKVKEYNVFDGQIHMFGHLQLEFDGREYRRRVELIIIKFNGQWHLRQVVKH | 1.58 |
| SEYEEWSERHLKHWEDARDTGDFDSETDLLDPHMRFQLIIGEKRVRFHGMEVLIEHVLRFKNATVREQKSHVEVIDGRIYIRLEGRYDVNGKDFDVEIIIISEKVNGRWILRYIEIRIH | 1.55 |
| SEYEHEAREVMHRLIHATETGDEEQILRMIDPHVRIDINGVELIGWRHLEEYLRRIDVVYIRIDARRVDVQGDKIRVDTEMDVEVDYDGRKFRHKEKTIIFMHKVDGRWLITSFHVL | 2.7 |
| SEYERDFRYAFNIYARDVLTGDEESLRRLLDPNMRIDVNGVHIHGREHLLQIWHEIRIHHFEIDLKHIEVQGNKIHVHGETHIDGEINGQRDEFKIRDSLLVLKVNGKWIFKRFIVD | 0.951 |
| SEYYEESKRMAEEHQHMRETGDEDRLRHLMDPTTKVEVGDKEFHGREWWHEFYKRFDHIEFRIHDIKLIDGVAIIQSIIIVRQGDKSDTLHVTIRITKVNGRWRTKSFEVI | 1.48 |
| SHDEDRLREMIERWVEFMITGDEDRLRELADPNMRIHVNGKDLHGREEYARWINELGVKHIEITHVDLQGDKIDIVTELRFDGRTHDIHIKARKIDGRWHLTEFREE | 1.34 |
| SHDEELVERVLKMYKHAIETGDEELLTLLLDPDTRLEIDGVDFHGMDIAIHILFKELLRHGIRTEHMRVEDVKVQGDFVHVDVEVNIDVDGREETERRHLVLWKFNGRWRVKHHHIH | 2.35 |
| SHDEEQVDRFLKLWSHAVMTGDWKFMYELLDPHTRLVINGKNVHGREEISKFFHDHVSRIKNLKIEVHLNEVRIFDGRAHLDIEVRIHIGDKNHTIHVEIVVEKVDGRWHVHSIHEK | 1.36 |
| SHDEEWARRFFEDFVRAILTGDEEHLFKNVDPNVRVEIGDKELHGREDFHQHLHEIRIKRFEVHDLTLQGEKVEEDIEMDGQVNGQRFRTRQRVVVDWVNGRFHHLKIEWE | 0.715 |
